Reference: publication PMC10627809, “Histones with an unconventional DNA-binding mode in vitro are major chromatin constituents in the bacterium Bdellovibrio bacteriovorus” (Nature Microbiology, 2023)

What was measured:
[1] = target: the molecule itself; test: crystal structure; apo Bd0055; hanging drop, 3.2 M (NH4)2SO4, 100 mM BICINE pH 9; 1.8 Å
Bd0055 = target: T1, Bd0055 (UniProt Q6MRM1 1-64); test: X-ray crystallography; 1 dimer per 2.5 bp; straight DNA; asymmetric unit has one dimer with 2 nt + 3 nt; FP/FRET: 10 nM DNA, 10 mM NaCl, 1 mM EDTA, 50 mM HEPES pH 6, r.t.; EMSA: 1 µM DNA, 10 mM NaCl, 1 mM EDTA, 50 mM HEPES pH 7.5, r.t., 10% native PAGE 0.2x TBE; settings: protein: recombinant; chain copies: 2; blunt
T1 sequence: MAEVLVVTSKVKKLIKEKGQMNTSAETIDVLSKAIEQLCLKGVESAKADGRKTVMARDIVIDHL

B1: Bd0055, B. bacteriovorus histone (natural protein, Bdellovibrio bacteriovorus HD100, UniProt Q6MRM1 1-64, looked up)
chain: T1 sequence
notes: Bd0055, singlet histone-fold protein of Bdellovibrio bacteriovorus HD100; open reading frame codon optimized for E. coli, cloned into a pET vector; No tag is named; purified by cation exchange, heparin and size exclusion; Histone-fold homodimer in both crystal structures; also called wild type Bd0055; bacterial histone Bd0055; source: E. coli, purified (SP HP, Heparin HP, S75)
- binding result [1]: binds

B2: 35 bp crystallization DNA (dsDNA)
DNA 1: TCTTGCACTAAGAGCTACTGGAGTGCGTCAGATGT
DNA 2: ACATCTGACGCACTCCAGTAGCTCTTAGTGCAAGA
- binding result (Bd0055): binds
